T1: BT2127 (Bacteroides thetaiotaomicron, UniProt Q8A5V9)
T1 sequence (Q8A5V9 1-224): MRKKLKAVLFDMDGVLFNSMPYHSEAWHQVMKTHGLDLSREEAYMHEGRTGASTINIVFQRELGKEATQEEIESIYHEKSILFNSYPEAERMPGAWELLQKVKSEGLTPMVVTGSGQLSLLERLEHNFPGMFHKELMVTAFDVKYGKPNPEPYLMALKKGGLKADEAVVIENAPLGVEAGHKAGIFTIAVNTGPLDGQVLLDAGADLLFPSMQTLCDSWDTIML


Assays:
[1] = molecular target: T1, BT2127; assay: steady-state competitive inhibition of pyrophosphate hydrolysis; type: biochemical
[2] = substrate: O=P(O)(O)OCC(O)CO; assay: purified protein; conditions: Mg2+; pH 7.5; 25.0 °C
[3] = substrate: O=[N+]([O-])c1ccc(OP(=O)(O)O)cc1; assay: purified protein; conditions: Mg2+; pH 7.5; 25.0 °C
[4] = substrate: O=c1ccn([C@@H]2O[C@H](COP(=O)(O)O)[C@@H](O)[C@H]2O)c(=O)[nH]1; assay: purified protein; conditions: Mg2+; pH 7.5; 25.0 °C

| Molecule | Ki [1] | Km [2] | kcat [2] | kcat/Km [2] | Km [3] | kcat [3] | kcat/Km [3] | Km [4] | kcat [4] | kcat/Km [4] |
| --- | --- | --- | --- | --- | --- | --- | --- | --- | --- | --- |
| O=P(O)(O)NP(=O)(O)O [imidodiphosphate] | 13 ± 1 µM |  |  |  |  |  |  |  |  |  |
| BT2127 (Bacteroides thetaiotaomicron VPI-5482) (protein) MRKKLKAVLFDMDGVLFNSMPYHSEAWHQVMKTHGLDLSREEAYMHEGRTGASTINIVFQRELGKEATQEEIESIYHEKSILFNSYPEAERMPGAWELLQKVKSEGLTPMVVTGSGQLSLLERLEHNFPGMFHKELMVTAFDVKYGKPNPEPYLMALKKGGLKADEAVVIENAPLGVEAGHKAGIFTIAVNTGPLDGQVLLDAGADLLFPSMQTLCDSWDTIML |  | 4800 ± 300 µM | 0.35 s⁻¹ | 70 M⁻¹ s⁻¹ | 50 ± 10 µM | 0.0019 s⁻¹ | 40 M⁻¹ s⁻¹ | 2600 ± 400 µM | 0.15 s⁻¹ | 60 M⁻¹ s⁻¹ |

From publication PMC3342813 (2011)
